{
  "source": "paper PMC12892846",
  "about": "“Biodistribution of the Bombesin Receptor-Targeted Radiopharmaceutical Precursor BBN/C1-C2 in a Prostate Cancer Model” (Modern Technologies in Medicine, 2025)",
  "key": {"[1]": {"settings": "cited from earlier work", "from_the_text": "Currently, there have been introduced into clinical practice several radiolabeled ligands targeting GRPR and based on a gastrin-releasing peptide (GRP) analog isolated from amphibian — bombesin (BBN) [[5–8]]. […] In addition to the high concentration of radiopharmaceuticals in non-target organs, there is one more significant problem complicating cancer therapy — pharmaceutical stability."}, "[2]": {"assay": "Stability analysis of Cy7.5-labeled peptides in phosphate-buffered saline (HPLC)", "type": "physicochemical", "experimental": "After synthesis the chemical purity of the peptides was analyzed by reversed-phase chromatography; we used high-efficiency liquid chromatography: LC-20AD XR (Shimadzu, Japan) equipped with a spectrophotometric detector and a column Luna C18(2) ([…]). The elution was gradient, its mobile phase consisted of deionized water and acetonitrile. The acetonitrile content in a mobile phase was increased from 5% at the beginning of the study to 100% at the end of the study within 40 min. The flow rate was 1 ml/min. Detection was performed at a wavelength of 215 nm, using mass spectrometry with the MALDI-TOF MS FLEX mass spectrometer (Bruker Daltonics, Germany).\nWe studied the stability of both — the whole structures (Cy7.5-BBN/C1-C2, Cy7.5-GRP, Cy7.5-U5-Sth1a) and also the peptide complexes with Cy7.5. So, all peptides were incubated in the phosphate-buffered saline (pH 7.4) for 144 h, at 37°С. Every 24 h we drew the samples and analyzed them using high-efficiency liquid chromatography LC-20AD XR (Shimadzu, Japan), as described above. The stability of the complex with the dye was fixed similarly to the peptide stability fixation, as following from the accumulation of the free dye in samples."}, "[3]": {"system": "Nu/Nu mice with PC-3 prostate cancer tumor", "assay": "In vivo surface fluorescent imaging of biodistribution", "set-up": "species or system mouse", "settings": "Cy7.5-labeled peptides, i.v. 19 nmol/kg, Nu/Nu mice with PC-3 tumor, 2 days, n=3", "experimental": "The study was carried out on Nu/Nu line male mice aged 9–10 weeks, weighing 26–28 g.\n(§1) Since Cy7.5-GRP peptide stability was limited, firstly, 48 h at 37°С in phosphate-buffered saline, there were two time points used in the study — 2 and 5 days. Two weeks prior to the investigation, the animals were subcutaneously inoculated into the right side with PC-3 cells (1 mil cells in RPMI-1640, 100 μl (PanEco, Russia), and matrigel, 100 μl (ABW, China)) to form a tumor. When the tumor reached its optimal size (150–200 mm3), the animals (n=10) were divided into the following groups: group 1 animals were administered a pure dye (n=1); group 2 — were given Cy7.5-GRP peptide (n=3); group 3 — were administered Cy7.5-U5-Sth1a toxin (n=3); group 4 — had Cy7.5-BBN/C1-C2 administered (n=3). The animals were anesthetized with 3% isoflurane inhalation (Chemical Iberica, Spain) at the rate of 1 L/min within 10 min, then the dose was reduced up to 2%. The peptides were injected into the caudal vein at the rate of 19 nmol/kg. […] The regions of interest were manually determined along the organ borderline; then using the software, we calculated the total fluorescence for each region. Finally, the average fluorescence of the peptides in the organ was calculated, it being normalized to the organ weight."}, "[4]": {"system": "PC-3 prostate cancer solid tumor expressing GRPR", "assay": "Tumor fluorescent imaging on days 2 and 5", "type": "in vivo, mouse", "settings": "Cy7.5-labeled peptides, i.v. 19 nmol/kg, PC-3 tumor in Nu/Nu mice", "experimental": "as §1"}, "[5]": {"system": "Nu/Nu mice with PC-3 prostate cancer tumor", "assay": "Semiquantitative ex vivo organ biodistribution on day 5 (fluorescence normalized to organ weight)", "type": "in vivo, mouse", "settings": "Cy7.5-labeled peptides, i.v. 19 nmol/kg, day 5, harvested organs, n=3", "experimental": "as §1"}, "patients": {"system": "patients", "settings": "patients with AMBA therapy; cited from earlier work", "from_the_text": "The key feature of these peptides is their ability to internalize inside the cells, acting as receptor agonists. At early stages of developing pharmaceuticals, this ability was an important condition for high and long-term absorption of a tumor by a pharmaceutical. However, currently, it appears to be a substantial deficiency, since radiolabeled agonists provide high absorption of radionuclides. One more major drawback of the ligands based on GRPR agonists is their absorption by normal non-tumor cells, particularly, the pancreatic cells. So, the potent GRPR agonist — AMBA (DOTA-Gl ..."}},
  "note": "No end group written: not given here.",
  "data": [
    {"substance": "N4-AMA-DIG-[DPhe6,Sar11,LeuNHEt13]BBN", "values": [
      {"measurement": "resistance to proteolysis", "setting": "[1]", "result": "high resistance to proteolysis"}
    ]},
    {"substance": "Cy7.5-GRP: GRP peptide labeled with Cyanine7.5 fluorescent dye (VPLPAGGGTVLTKMYPRGNHWAVGHLM; ends and bridges not checked; also: Cy7.5 NHS ester bound to peptide amino group (N-terminus or Lys not given here); UniProt P07492 24-50, looked up)", "values": [
      {"measurement": "time to which peptide stability was limited", "setting": "[2]; 37°C in phosphate-buffered saline", "result": 48, "unit": "h"},
      {"measurement": "chemical purity / stability after 48 h", "setting": "[2]; phosphate-buffered saline pH 7.4, 37°C, 48 h, reversed-phase HPLC C18, detection 215 nm", "result": 64.5, "unit": "%"},
      {"measurement": "chemical purity / stability after 144 h", "setting": "[2]; phosphate-buffered saline pH 7.4, 37°C, 144 h, samples every 24 h, reversed-phase HPLC C18, detection 215 nm", "result": 46.8, "unit": "%"},
      {"measurement": "chemical purity / stability at the start of incubation", "setting": "[2]; phosphate-buffered saline pH 7.4, 37°C, start of incubation, reversed-phase HPLC C18, detection 215 nm", "result": 95.7, "unit": "%"}
    ]},
    {"substance": "GRP: a short peptide with affinity to GRPR receptors (VPLPAGGGTVLTKMYPRGNHWAVGHLM; ends and bridges not checked; UniProt P07492 24-50, looked up)", "values": [
      {"measurement": "main region of binding / accumulation on day 2", "setting": "[3]", "result": "the spleen"},
      {"measurement": "organ of excretion on day 2", "setting": "[3]", "result": "the kidney"},
      {"measurement": "localization of labeled peptide in the tumor on day 2", "setting": "[4]", "result": "detected in the tumor to a greater extent than BBN/C1-C2"},
      {"measurement": "organs of accumulation / localization, ex vivo", "setting": "[5]", "result": "localized in the stomach and the pancreas"}
    ]},
    {"substance": "bombesin", "values": [
      {"measurement": "proteolytic stability", "setting": "[1]", "result": "low proteolytic stability"}
    ]},
    {"substance": "DOTA-Gly-4-aminobenzoyl-BBN(7–14) [AMBA]", "values": [
      {"measurement": "absorption by normal organs in patients", "setting": "patients", "result": "significant absorption of the pharmaceutical by the pancreas and the gastrointestinal tract"}
    ]}
  ]
}
